Assay: soluble on expression in E. coli; label from the status in PepcDB or PDB records

| Sequence | soluble on expression in E. coli |
| --- | --- |
| MSPQKRVKNVQAQNRTSQGSSSFQTTLSAWKVKQDPSNSKNISKHGQNNPVGDYEHADDQAEEDALQMAVGYFEKGPIKASQNKDKTLEKHLKTVENVAWKNGLASEEIDILLNIALSGKFGNAVNTRILKCMIPATVISEDSVVKAVSWLCVGKCSGSTKVLFYRWLVAMFDFIDRKEQINLLYGFFFASLQDDALCPYVCHLLYLLTKKENVKPFRVRKLLDLQAKMGMQPHLQALLSLYKFFAPALISVSLPVRKKIYLQNSENLWKTALLAVKQRNRGPSPEPLKLMLGPANVRPLKRKWNSLSVIPVLNSSSYTKECGKKEMSLSDCLNRSGSFPLEQLQSFPQLLQNIHCLELPSQMGSVLNNSLLLHYINCVRDEPVLLRFHYWLSQTLQEECIWYKVNNYEHGKEFTNFLDTIIRAECFLQEGYYSCEAFLYKSLPLWDGLSCRSQFLQLVSWIPFSSFSEVKPLLFDHLAQLFFTSTIYFKCSVLQSLKELLQNWLLWLSMDIHMKPVTNSPLETTLGGSMNCVSKLIHYVGWLSTTAMRLESNNTFLLHFILDFYEKVCDIYINYDLPLVVLFPPGIFYSALLSLDTSILNQLCFIMHRYRKNLTAAKKNELVQKTKSEFNFSSKTYQEFNYYLTSMVGCLWTSKPFAKGIYIDPEILEKTGVAEYKNSLNVVHHPSFLSYAVSFLLQESPEERTVNVSSIRGKKWSWYLDYLFSQGLQGLKLFIRSSVHHSSIPRAEGINCNNQY | soluble |
| MSPRNDSTRKHRKSRSIKDDQHYPPVSFVGVESVGIIECPGSNHLSLASIPTTEFKIPDELALWVRGRIDNVAPKHPCDRRGQQPLAKKEISMNSSRSNSSFPARSPAIMTLMGGVPEAEKEYNVGKDGLLKVSKMMEGGKRYEVSANDRFTVFQQSAGQTCLFTFKA | not soluble |
| MSPVDFKDKVVIITGAGGGLGKYYSLEFAKLGAKVVVNDLGGALNGQGGNSKAADVVVDEIVKNGGVAVADYNNVLDGDKIVETAVKNFGTVHVIINNAGILRDASMKKMTEKDYKLVIDVHLNGAFAVTKAAWPYFQKQKYGRIVNTSSPAGLYGNFGQANYASAKSALLGFAETLAKEGAKYNIKANAIAPLARSRMTESIMPPPMLEKLGPEKVAPLVLYLSSAENELTGQFFEVAAGFYAQIRWERSGGVLFKPDQSFTAEVVAKRFSEILDYDDSRKPEYLKNQYPFMLNDYATLTNEARKLPANDASGAPTVSLKDKVVLITGAGAGLGKEYAKWFAKYGAKVVVNDFKDATKTVDEIKAAGGEAWPDQHDVAKDSEAIIKNVIDKYGTIDILVNNAGILRDRSFAKMSKQEWDSVQQVHLIGTFNLSRLAWPYFVEKQFGRIINITSTSGIYGNFGQANYSSSKAGILGLSKTMAIEGAKNNIKVNIVAPHAETAMTLSIMREQDKNLYHADQVAPLLVYLGTDDVPVTGETFEIGGGWIGNTRWQRAKGAVSHDEHTTVEFIKEHLNEITDFTTDTENPKSTTESSMAILSAVGGD | soluble |
| MSQDLQKEVASRKTFAIISHPDAGKTTITEQLLLFGGVIRSAGTVKGKKSGKFATSDWMEIEKQRGISVTSSVMQFDYNGSRINILDTPGHSDFSEDTYRTLMAVDSAVMVIDAAKGIEAQTLKLFKVCRMRGIPIFTFINKMDRQGKMPLELLAELEEVLGIESYPMNWPIGMGKELAGLYDRYHRVIEQYRSEEDERFLPLGEDGDLKEAHAIQKSLYYDQALEEIMLLDEAGNDFSRERIIAGEQTPVFFGSALTNFGVETFLRTFVDFAPAPSSHESNEGVIEADNPKFSGFIFKIQANMNPAHRDRIAFIRICSGEFERGMNVTLTRTGKSLKLANSTQFMADDRETVNRAVAGDIIGLYDTGNYQIGDTITNGSKKLEFEKLPQFTPELFMRVYAKNVMKQKHFHKGVEQLVQEGAIQLFKTWRTEEYIIGAVGQLQFEVFEHRMRGEYNSEIRMEPIGKKIARWVKEEDADEKLSTARSMLVKDRFDQPLFLFENEFAINWFNDKNPDIELTSLL | not soluble |
| MSQEHESSFQDPSRDELIQQVKELQIINANQRPEKILQEAFEKINLLVITIDQDGLIVYANEAFLEVIGWEKQRLLGENWKEFLEPGKDKNKEEHIYTLIKKQGFIDQLKRKFLSKEGDYRTIKFNVVIHHPIGNDVHLTTLIGEDIT | not soluble |
| MSQFAVIIFGDQAKANEASRVLTELQADNSLVLFSQAVIAKDLAGTVSLMAPASGGAVGSAVSGLASRLIGVPVGGHGDLSDAGVLDSFCQEAADALKPGATAIVAEISEDRLGPLNTQMHALGGQVLRSCNSDSEGDEIAKQTARQIANIERLNAEYVRAPQDADKPGETPVDAVTLAPDERASNQSIVKANAEARSAKLSQACGLTKDALG | not soluble |
| MSQIAGYFSSDSGVYPNPVKDVLNIKHEGDFGVRIFDFSGRLVLSMENTRMIGVKVLTAGAYVIKLMTQGSTPAERFIKL | not soluble |
| MSQLFVRTGIHFSSSQQALEHIGAEMLARGVVHDSYPAALLEREATFPTGIALEKHAVAIPHCEAIHAKSPAIYLIRPDMPVSFQRADDDGEIDVSLIIALIVENPAAQLKLLRRLFSELQNPHTLEALLAASDDRLPVRFQQLILEPELSAVAS | not soluble |
| MSQQSLISPSLQDILCKIQFNDTQFETTKKITRKRSNNFNPDRKKRNRITFDANQIDEMEKVFAENQYPDTMSREKLANKIQLHEERVQIWFQNRRAKYRREQKQTGHPYEPPSITKNPTGEKEKTQDCTTLTSASSPGPSNLSNDTLVSIEMAPKIGTKSVNLFPDQALSNTLNMIINANKNASENNYESEDQFNAESAKLLMLTLSNLFSLQNETTCE | not soluble |
| MSQQYVYSMLRVSKVVPPQKTIIKDISLSFFPGAKIGLLGLNGAGKSTVLRIMAGVDKEFEGEAVPMGGIKIGYLPQEPELDPEKTVREEVESGLGEVAAAQKRLEEVYAEYANPDADFDALAEEQGRLEAIIAAGSSTGGGAEHELEIAADALRLPEW | not soluble |
| MSQSISLKGSTRTVTEFFEYSINSILYQRGVYPAEDFVTVKKYDLTLLKTHDDELKDYIRKILLQVHRWLLGGKCNQLVLCIVDKDEGEVVERWSFNVQHISGNSNGQDDVVDLNTTQSQIRALIRQITSSVTFLPELTKEGGYTFTVLAYTDADAKVPLEWADSNSKEIPDGEVVQFKTFSTNDHKVGAQVSYKY | soluble |
| MSQSLFSLAFGVGTQNRQEAWLEVFYALPLLKPSSEIVAAVAPILGYAAGNQALTFTSQQAYQLADALKGIDAAQSALLSRLAESQKPLVATLLAEDAAPSSTAEAYLKLHLLSHRLVKPHAVNLSGIFPLLPNVAWTNIGAVDLAELAELQLEARLKGKLLEVFSVDKFPKMTDYVVPAGVRIADTARVRLGAYIGEGTTVMHEGFVNFNAGTEGPGMIEGRVSAGVFVGKGSDLGGGCSTMGTLSGGGNIVISVGEGCLIGANAGIGIPLGDRNIVEAGLYITAGTKVALLDEQNALVKVVKARDLAGQPDLLFRRNSQNGAVECK | not soluble |
| MSRAVRPYLVLATQRSGSTLLVESLRATGCAGEPQEFFQYLPSTGMAPQPREWFAGVDDDTILQLLDPLDPGTPDTATPVAWREHVRTSGRTPNGVWGGKLMWNQTALLQQRAAQLPDRSGDGLRAAIRDVIGNEPVFVHVHRPDVVSQAVSFWRAVQTQVWRGHPDPKRDSQAVYHAGAIAHIIRNLRDQENGWRAWFAEEGIDPIDIAYPVLWRNLTAIVASVLDAIGQDPKLAPAPMLERQANQRSDEWVDRYRAEAPRLGLPT | soluble |
| MSRDSGNDSEVAVTHGEVQEITEENPEIGSMHITQETDISDAPETNTDSSRQRTESTTSVSSESWQNNDEMMSNLRRAQRLLDDGATPLQIIQQIFPDFNASRIATMSENAHFAILSDLLERAPVRQKLTNYNSLADAVELFKTKKHILVLTGAGVSVSCGIPDFRSKDGIYARLRSEFPDLPDPTAMFDIRYFRENPAPFYNFAREIFPGQFVPSVSHRFIKELETSGRLLRNYTQNIDTLEHQTGIKRVVECHGSFSKCTCTRCGQKYDGNEIREEVLAMRVAHCKRCEGVIKPNIVFFGEDLGREFHQHVTEDKHKVDLIVVIGSSLKVRPVALIPHCVDKNVPQILINRESLPHYNADIELLGNCDDIIRDICFSLGGSFTELITSYDSIMEQQGKTKSQKPSQNKRQLISQEDFLNICMKEKRNDDSSDEPTLKKPRMSVADDSMDSEKNNFQEIQKHKSEDDDDTRNSDDILKKIKHPRLLSITEMLHDNKCVAISAHQTVFPGAECSFDLETLKLVRDVHHETHCESSCGSSCSSNADSEANQLSRAQSLDDFVLSDEDRKNTIHLDLQRADSCDGDFQYELSETIDPETFSHLCEEMRI | not soluble |
| MSRIHTLTMPKWGLSMTEGRVDAWLKEEGAHIEKGDEVLDVETDKISSSVEAPFSGVLRRKVAREDETLAVGALLGVVVEGEASDEEIDALVQRFQAEFVPADEDAGDSGPAPRKVELDGRLLRYFDRGEGDPALLLIHGFGGDLNNWLFNHEALAAERRVIALDLPGHGESGKALVRGDLDELSGSVLALLDHLDLEQVHLAGHSMGGAVALNCARLAPQRVLSLSLIGSAGLGEEINGDYLRGFVEAANRNALKPQLVQLFSDPALVTRQMLEDMLRYKRLEGVDAALRQLLDNLFADGRQRNDLRAVANEGRQPVLAIWGSDDAIIPARHAEGLPAQVEIIPGQAHMVQMEAAEQVNRLLLDFLRQH | not soluble |
| MSRIIMLIPTGTSVGLTSVSLGVIRAMERKGVRLSVFKPIAQPRTGGDAPDQTTTIVRANSSTTTAAEPLKMSYVEGLLSSNQKDVLMEEIVANYHANTKDAEVVLVEGLVPTRKHQFAQSLNYEIAKTLNAEIVFVMSQGTDTPEQLKERIELTRNSFGGAKNTNITGVIVNKLNAPVDEQGRTRPDLSEIFDDSSKAKVNNVDPAKLQESSPLPVLGAVPWSFDLIATRAIDMARHLNATIINEGDINTRRVKSVTFCARSIPHMLEHFRAGSLLVTSADRPDVLVAACLAAMNGVEIGALLLTGGYEMDARISKLCERAFATGLPVFMVNTNTWQTSLSLQSFNLEVPVDDHERIEKVQEYVANYINADWIESLTATSERSRRLSPPAFRYQLTELARKAGKRIVLPEGDEPRTVKAAAICAERGIATCVLLGNPAEINRVAASQGVELGAGIEIVDPEVVRESYVGRLVELRKNKGMTETVAREQLEDNVVLGTLMLEQDEVDGLVSGAVHTTANTIRPPLQLIKTAPGSSLVSSVFFMLLPEQVYVYGDCAINPDPTAEQLAEIAIQSADSAAAFGIEPRVAMLSYSTGTSGAGSDVEKVREATRLAQEKRPDLMIDGPLQYDAAVMADVAKSKAPNSPVAGRATVFIFPDLNTGNTTYKAVQRSADLISIGPMLQGMRKPVNDLSRGALVDDIVYTIALTAIQSAQQQ | soluble |
| MSRKKMGLLVMAMGTPYKEEDIERYYTHIRRGRKPEPEMLQDLKDRYEAIGGISPLAQITEQQAHNLEQHLNEIQDEITFKAYIGLKHIEPFIEDAVAEMHKDGITEAVSIVLAPHFSTFSVQSYNKRAKEEAEKLGGLTITSVESWYDEPKFVTYWVDRVKETYASMPEDERENAMLIVSAHSLPEKIKEFGDPYPDQLHESAKLIAEGAGVSEYAVGWQSEGNTPDPWLGPDVQDLTRDLFEQKGYQAFVYVPVGFVADHLEVLYDNDYECKVVTDDIGASYYRPEMPNAKPEFIDALATVVLKKLGR | soluble |
| MSRLATLTWTSYRRGYTEIVTSAGLEVVFEPGDEWNSHDREYQQARLEVEGRGESGDGTVRTRTQALLRWQFKIKDGTVKRLPEADFTREVLVAVRLAIKDYRSQSSELRQKYFGPGFAMGG | not soluble |
| MSRLRSTPIPGTRDSYTQVDFNLGFHVRHYDVSLDYVVAPNRLKAVVTLSMDTYQPLRSLTLDLSDALTVKSVTAQGTSAVAVRVQKFRHRNHKLRISFTEEIPVDQEFKITVTYSGNPRPIRSTWGLIGWEELSNGSLVASQPNGARSWLPCDDTPDEK | not soluble |
| MSRPAASLGLMRMIEAVPDRLDGSPRQLRRFWSDEFKETAVEQACQPGVNMSAVARQIGILPSQLYRWRRELLASDKPGEAPAAVDPQSVAPDANPVVEIVIDGIVVRADRHIEEAHLQRVIRAVRSALEHHHHHH | soluble |

— the DeepSol protein solubility set
